Experimental data: the supplement of paper PMC10126150
± gives the standard deviation of the averaged measurements.

Tested on: ATP
Assay: switch fluorescence ratio, 500 uM ATP over buffer (Cy3 cluster intensity, sum of 5 cycles each) (fold (ratio)); higher = stronger signal-on switching upon ATP binding; sequences stand for … in TCGTCGGCAGCGTCAGATGTGTATAAGAGACAGTTTTTTTTTTTTTTTTTTTTTTTTT…TC
Settings: aptamer strand: ATP DNA aptamer (quencher-CACCTGGGGGAGTATTGCGGAGGAAGG + anchor), 100 nM annealed; ATP concentration: 500 uM
Procedure, shortened: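 Imaging in selection buffer was followed by imaging after 15 min with 500 uM ATP at 22 °C, for Cy3-labelled switching-strand clusters annealed to 100 nM quencher-labelled ATP aptamer on a modified Illumina MiSeq flow-cell. Five of these buffer/ATP cycles ran, separated by NaOH stripping and re-annealing. The fluorescence ratio per cluster is summed target-cycle over summed buffer-cycle Cy3 intensity, averaged per switch-domain sequence; clusters outside 100-1000 RFU were removed.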
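Further: ATP exposure 15 min at 22 °C before imaging.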

Sequence	switch fluorescence ratio
GCGGGTATGA	0.964 ± 0.052
GCGGGTCAAA	0.9883 ± 0.0093
GCGGGTCAGC	1.01 ± 0.012
GCGGGTTGCC	0.9871 ± 0.0013
GCGGGTTTGG	1.01 ± 0.018
GCGGTAACCA	0.992 ± 0.033
GCGGTAGCAT	1.02 ± 0.012
GCGGTAGGTT	1.01 ± 0.013
GCGGTCAAAC	1.06 ± 0.036
GCGGTGCTGG	0.991 ± 0.024
GCGGTGGCGG	0.987 ± 0.039
GCGGTGGTTT	0.998 ± 0.017
GCGGTGTTGG	0.9887 ± 0.006
GCGGTTCGAA	0.997 ± 0.084
GCGGTTGCCA	0.982 ± 0.033
GCGGTTGTTC	0.995 ± 0.034
GCGTAAAGAT	0.992 ± 0.034
GCGTAAAGGG	0.99 ± 0.043
GCGTAAGCAG	0.981 ± 0.012
GCGTACAAGA	1.04 ± 0.061
GCGTATGTAC	1.212 ± 0.0081
GCGTCCGACT	0.986 ± 0.06
GCGTCTATTA	0.995 ± 0.012
GCGTCTTGGG	0.96 ± 0.025
GCGTGACGGC	0.981 ± 0.033

Sequence	switch fluorescence ratio
GCGTGGGGGG	1 ± 0.016
GCGTGTAGAT	1.04 ± 0.036
GCGTTAACGC	0.9731 ± 0.0096
GCGTTAATGG	1 ± 0.02
GCGTTAGCGC	0.968 ± 0.012
GCGTTAGCTT	0.982 ± 0.069
GCGTTAGGGT	0.976 ± 0.027
GCGTTAGTAC	1.09 ± 0.031
GCGTTAGTAG	0.9971 ± 0.0082
GCGTTAGTTG	1.01 ± 0.057
GCGTTCACGG	0.988 ± 0.026
GCGTTCATGG	1.04 ± 0.0093
GCGTTCGTGG	1.02 ± 0.027
GCGTTGCATT	1 ± 0.017
GCGTTGGAAA	0.997 ± 0.015
GCGTTGGGGG	0.995 ± 0.037
GCGTTTAACT	0.9888 ± 0.008
GCGTTTAAGT	1.02 ± 0.032
GCGTTTATGT	0.953 ± 0.025
GCGTTTGCGC	1.03 ± 0.016
GCGTTTGGAC	1.056 ± 0.01
GCGTTTGGCT	0.996 ± 0.021
GCGTTTGGGC	0.99 ± 0.057
GCGTTTGTGG	1 ± 0.011
GCGTTTTAAC	1.019 ± 0.0093

Sequence	switch fluorescence ratio
GCGTTTTGTC	0.96229 ± 0.00085
GCTAAAAAGA	1 ± 0.076
GCTAAAAGTT	0.995 ± 0.021
GCTAAACGAT	1.03 ± 0.055
GCTAAAGGGG	1.19 ± 0.31
GCTAAAGGTA	0.986 ± 0.011
GCTAAAGTCT	1.043 ± 0.0085
GCTAACGGTT	0.981 ± 0.011
GCTAATTGTG	0.975 ± 0.0036
GCTACACAGG	1.45 ± 0.016
GCTACAGGTT	1.007 ± 0.0092
GCTACCAAGC	1.07 ± 0.025
GCTACCCACT	1.46 ± 0.033
GCTACTGGAT	1.007 ± 0.0058
GCTACTGTTA	1.077 ± 0.0025
GCTACTTAGT	1.02 ± 0.017
GCTAGAGAGG	1.04 ± 0.063
GCTAGGCATG	1.04 ± 0.027
GCTAGGCCTT	0.9957 ± 0.0082
GCTAGGGTA	0.9973 ± 0.0043
GCTAGGTGAA	1.21 ± 0.017
GCTAGGTTTG	0.998 ± 0.054
GCTAGTGAAC	1.029 ± 0.0091
GCTATAAAAC	1.03 ± 0.077
GCTATAAGGG	1 ± 0.036

Sequence	switch fluorescence ratio
GCTATAGAAT	1.01 ± 0.028
GCTATAGGGG	1.02 ± 0.02
GCTATAGGTG	1.27 ± 0.057
GCTATAGTGG	1.04 ± 0.035
GCTATAGTGT	0.992 ± 0.021
GCTATATACA	1.04 ± 0.014
GCTATCATCG	0.997 ± 0.035
GCTATCGGGA	1.01 ± 0.037
GCTATCTGCT	0.976 ± 0.06
GCTATGAAAA	0.986 ± 0.028
GCTATGAG	0.995 ± 0.037
GCTATGGTGG	0.987 ± 0.021
GCTATGTAGG	1 ± 0.062
GCTCAAAGTT	0.99 ± 0.02
GCTCAAGTGC	1.07 ± 0.032
GCTCAGGGGG	1.03 ± 0.016
GCTCATAGGA	0.972 ± 0.016
GCTCCATGGG	1.02 ± 0.046
GCTCCCAAGG	3.69 ± 0.46
GCTCCCGGGC	1.1 ± 0.041
GCTCCGATAG	5.2 ± 0.94
GCTCCTGACT	1.15 ± 0.026
GCTCGAAAGA	1.008 ± 0.0024
GCTCGAATTA	1.02 ± 0.016
GCTCGACAAT	1.15 ± 0.14

Sequence	switch fluorescence ratio
GCTCGGAGGA	1 ± 0.025
GCTCGGGGGA	0.978 ± 0.022
GCTCGGGGTC	0.978 ± 0.062
GCTCTAAGGG	1.01 ± 0.028
GCTCTAGATG	1.04 ± 0.0076
GCTCTATACG	1.049 ± 0.003
GCTCTGGCTA	1.11 ± 0.022
GCTCTTGTGC	1.008 ± 0.0034
GCTCTTTAGA	0.962 ± 0.018
GCTCTTTGAA	1.01 ± 0.012
GCTGAAGGGA	0.99 ± 0.042
GCTGAAGTTT	0.979 ± 0.038
GCTGAGAGTC	0.992 ± 0.034
GCTGAGGGTT	0.9552 ± 0.006
GCTGATACGG	1.07 ± 0.027
GCTGATATGG	1.02 ± 0.054
GCTGATCGTA	0.9915 ± 0.0057
GCTGATTAG	0.954 ± 0.011
GCTGCACGGG	1.01 ± 0.03
GCTGCAGCGC	1.005 ± 0.0042
GCTGCCAACC	1.11 ± 0.031
GCTGGAAAGG	1.01 ± 0.079
GCTGGAACTG	1.06 ± 0.14
GCTGGAAGCA	0.986 ± 0.078
GCTGGAATGG	1.06 ± 0.015

Sequence	switch fluorescence ratio
GCTGGAGCCA	1.03 ± 0.019
GCTGGAGGGT	0.997 ± 0.019
GCTGGATGGC	0.993 ± 0.025
GCTGGCTTGC	0.988 ± 0.021
GCTGGGACAC	1.04 ± 0.012
GCTGGGAGTT	1 ± 0.054
GCTGGGCGAT	0.961 ± 0.032
GCTGGGCGGA	1.04 ± 0.039
GCTGGGGATT	0.987 ± 0.02
GCTGGGGGCT	1.008 ± 0.0076
GCTGGGTAAC	1.006 ± 0.0034
GCTGGGTGCA	0.9719 ± 0.0016
GCTGGGTTGC	1.01 ± 0.024
GCTGGGTTGG	1 ± 0.026
GCTGGTATAT	1.01 ± 0.016
GCTGGTCGCC	1.005 ± 0.01
GCTGGTTTCG	1.033 ± 0.0054
GCTGTAACG	1 ± 0.042
GCTGTAACTG	1.08 ± 0.017
GCTGTAATTT	0.998 ± 0.056
GCTGTACGCG	1.03 ± 0.029
GCTGTAGAAG	0.9951 ± 0.0056
GCTGTAGGGG	1.02 ± 0.081
GCTGTATTTA	0.974 ± 0.024
GCTGTCAATC	1.11 ± 0.053

Sequence	switch fluorescence ratio
GCTGTCGCTT	1.03 ± 0.027
GCTGTGGGTA	0.989 ± 0.01
GCTGTTGTTG	0.9918 ± 0.0051
GCTTAAGGCG	0.991 ± 0.051
GCTTAAGGCT	1 ± 0.022
GCTTACAGGC	1.04 ± 0.048
GCTTACGGGG	1.04 ± 0.049
GCTTACTCAT	1.09 ± 0.043
GCTTATTTAA	0.99 ± 0.021
GCTTCAAGTC	0.978 ± 0.018
GCTTCAAGTT	0.985 ± 0.027
GCTTCCTTGG	1.31 ± 0.079
GCTTCGGCCT	1.02 ± 0.058
GCTTCGGCGC	1.03 ± 0.046
GCTTCGTGTT	1.05 ± 0.003
GCTTGAGGGA	0.984 ± 0.042
GCTTGAGGGG	1.012 ± 0.0022
GCTTGCGGGA	1.03 ± 0.019
GCTTGCGGTC	0.9873 ± 0.0095
GCTTGGACTA	0.967 ± 0.011
GCTTGGGGTT	0.98 ± 0.021
GCTTGTATTT	1 ± 0.014
GCTTGTGAGG	1.02 ± 0.022
GCTTGTTAAA	0.994 ± 0.037
GCTTTACTGT	1.01 ± 0.013

Sequence	switch fluorescence ratio
GCTTTAGTTC	1.03 ± 0.003
GCTTTATAGG	1 ± 0.016
GCTTTATAGT	0.985 ± 0.049
GCTTTATGCT	0.9714 ± 0.0025
GCTTTATTTA	0.992 ± 0.053
GCTTTCTCGT	1.03 ± 0.029
GCTTTGAATG	1.011 ± 0.005
GCTTTGGATA	1.04 ± 0.055
GCTTTGGCTA	1.02 ± 0.036
GCTTTGGGCA	0.9992 ± 0.0067
GCTTTGTGTA	1.01 ± 0.049
GCTTTTACGG	1.07 ± 0.016
GCTTTTGGGG	1.03 ± 0.087
GCTTTTGGGT	1 ± 0.025
GCTTTTGTAC	1.05 ± 0.05
GCTTTTTAGG	0.964 ± 0.024
GCTTTTTTTG	1.017 ± 0.0079
GGAAAAAATA	1.001 ± 0.0072
GGAAAATCAA	0.9812 ± 0.0078
GGAAAATTAA	1 ± 0.033
GGAAACGGGG	1.001 ± 0.0064
GGAAAGAACA	0.9817 ± 0.0079
GGAAAGAGTT	1.07 ± 0.056
GGAAAGATAG	1.022 ± 0.0046
GGAAATAAGG	1.01 ± 0.033
